Positions count from the first letter of the chain named.

The target of this assay is T1, Human recombinant AXL-FND1 (GST-FND1), from pET-41b(+) (human, UniProt P30530 225-331).
T1 construct: Expressed in E. coli, purified on Glutathione Sepharose; analyte in all Biacore measurements; GST put first by the usual layout of pET-41; not shown: GST-tag of vector pET-41b(+) (Novagen)
T1 sequence (looked up): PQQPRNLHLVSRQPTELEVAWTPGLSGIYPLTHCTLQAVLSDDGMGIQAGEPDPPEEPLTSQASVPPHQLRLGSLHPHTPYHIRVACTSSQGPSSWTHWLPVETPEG
Briefly: SPR (Biacore T100): antibody captured on Protein A, GST-FND1 as analyte. The method, then:
Kinetic analyses of antigen-antibody reactions of humanized AXL antibodies were carried out using Biacore T100 (BIACORE). rec-Protein A (Zymed) (hereinafter, Protein A) was immobilized onto a sensor chip, various antibodies were bound to it, then an antigen as the analyte was flushed to measure the antibody-antigen interaction. Human recombinant AXL-FND1 (prepared in 2-2; hereinafter referred to as GST-FND1) prepared at various concentrations was used as the antigen. From the sensorgrams obtained through the measurements, kinetic parameters, namely binding rate constant kₐ (1/Ms) and dissociation rate constant kd (1/s), were calculated, and Kd (M) was calculated based on these values. Biacore T100 Evaluation Software (BIACORE) was used to calculate each of the parameters.
The sensor chips were produced by immobilizing approximately 3000 RU of Protein A onto CM5 (BIACORE) by amine coupling. Using the produced sensor chip, kinetic analyses were carried out on the interaction between the Protein A-bound antibodies and GST-FND1. HBS-EP+ was used as the running buffer, and the flow rate was set to 30 μL/min. Each antibody was prepared at 1 μg/mL using the running buffer, and was subjected to binding with Protein A for two minutes. GST-FND1 as the analyte was prepared at 0.5 and 2.0 μg/mL using HBS-EP+. Measurements were carried out by first binding the various humanized AXL antibodies, chimeric AXL antibodies, or mouse AXL antibodies of interest to Protein A, then applying an analyte solution to them for a two-minute interaction, and then switching to HBS-EP+ (BIACORE) for a two-minute measurement of the dissociation phase. After completion of measurement of the dissociation phase, 30 μL of 10 mM glycine-HCl (pH 2.0) was used for washing to regenerate the sensor chip. Such binding, dissociation, and regeneration were defined as one cycle of analysis. All experiments were performed at 25° C.
Affinity evaluation of each of the variants by Biacore was carried out by the method of Example 2.
For orientation: Surface plasmon resonance follows binding to a sensor surface in real time, without labels.

B1: H31/L0 (antibody, human IgG1, kappa)
heavy: not shown
light: DVVMTQSPLSLPVTLGQPASISCRSSQNIVHTNGNTYLEWYQQKPGKAPELLIYKVSNRFSGVPDRFSGSGSGTDFTLKISRVEAEDVGVYYCFQGSHIPFTFGQGTKLEIKRTVAAPSVFIFPPSDEQLKSGTASVVCLLNNFYPREAKVQWKVDNALQSGNSQESVTEQDSKDSTYSLSSTLTLSKADYEKHKVYACEVTHQGLSSPVTKSFNRGEC
Regarding B1, the Kd (usually the free concentration of one partner at which half of the binding sites on the other are occupied at equilibrium, for simple one-to-one binding) turned out to be 2.54 nM.

B2: H31/L12 (antibody, human IgG1, kappa)
heavy: not shown
light: B1 light with R24Q, K47E, L109V, K112E
On to B2, for which the Kd worked out at 3.14 nM.

B3: H46/L0 (antibody, human IgG1, kappa)
heavy: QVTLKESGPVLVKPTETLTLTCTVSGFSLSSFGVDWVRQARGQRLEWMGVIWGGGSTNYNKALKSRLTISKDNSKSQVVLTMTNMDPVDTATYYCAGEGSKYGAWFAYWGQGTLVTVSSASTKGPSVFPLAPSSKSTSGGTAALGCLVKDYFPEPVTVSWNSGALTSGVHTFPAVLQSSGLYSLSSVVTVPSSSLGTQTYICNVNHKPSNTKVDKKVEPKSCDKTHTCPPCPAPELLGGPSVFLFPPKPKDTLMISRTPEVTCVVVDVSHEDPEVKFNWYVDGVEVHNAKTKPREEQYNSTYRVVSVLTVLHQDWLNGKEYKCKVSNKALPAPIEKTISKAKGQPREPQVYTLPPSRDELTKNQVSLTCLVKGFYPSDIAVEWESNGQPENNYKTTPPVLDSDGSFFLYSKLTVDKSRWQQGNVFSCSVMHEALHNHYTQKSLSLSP
light: B1 light
As to B3, the Kd came to 1.87 nM.

B4: H36/L0 (antibody, human IgG1, kappa)
heavy: not shown
light: B1 light
Consider B4, for which the dissociation constant (Kd) amounted to 1.96 nM.

B5: H36/L1 (antibody, human IgG1, kappa)
heavy: not shown
light: B1 light with R24Q
For B5, the Kd is 2.03 nM.

B6: H32/L10 (antibody, human IgG1, kappa)
heavy: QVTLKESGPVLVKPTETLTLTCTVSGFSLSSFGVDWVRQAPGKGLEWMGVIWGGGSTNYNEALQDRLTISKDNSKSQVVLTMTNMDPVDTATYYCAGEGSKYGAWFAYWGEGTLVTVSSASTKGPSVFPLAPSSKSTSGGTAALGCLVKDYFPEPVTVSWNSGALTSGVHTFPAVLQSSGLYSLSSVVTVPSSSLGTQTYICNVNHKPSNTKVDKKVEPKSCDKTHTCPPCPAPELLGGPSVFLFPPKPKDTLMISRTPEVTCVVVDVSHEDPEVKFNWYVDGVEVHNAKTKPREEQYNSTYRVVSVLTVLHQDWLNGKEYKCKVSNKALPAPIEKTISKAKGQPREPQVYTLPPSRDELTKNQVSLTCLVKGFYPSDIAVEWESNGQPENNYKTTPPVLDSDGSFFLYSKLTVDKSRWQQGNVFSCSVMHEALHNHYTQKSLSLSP
light: B1 light with L109V, K112E
As to B6, the Kd was 2.8 nM.

B7: H46/L10 (antibody, human IgG1, kappa)
heavy: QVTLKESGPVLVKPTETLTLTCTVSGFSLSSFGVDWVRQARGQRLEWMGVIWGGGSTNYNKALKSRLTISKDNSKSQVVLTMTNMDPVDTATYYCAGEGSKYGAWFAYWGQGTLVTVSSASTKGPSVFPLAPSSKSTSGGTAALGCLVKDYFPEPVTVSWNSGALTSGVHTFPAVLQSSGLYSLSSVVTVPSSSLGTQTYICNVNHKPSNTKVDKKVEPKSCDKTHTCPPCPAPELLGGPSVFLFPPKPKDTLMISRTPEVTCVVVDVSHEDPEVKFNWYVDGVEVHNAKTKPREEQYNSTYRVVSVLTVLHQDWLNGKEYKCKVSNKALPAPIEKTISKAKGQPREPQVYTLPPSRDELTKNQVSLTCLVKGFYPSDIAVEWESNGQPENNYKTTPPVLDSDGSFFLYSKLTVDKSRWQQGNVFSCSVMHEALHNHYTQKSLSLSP
light: B1 light with L109V, K112E
As to B7, the Kd was found to be 1.88 nM.

B8: H36/L31 (antibody, human IgG1, kappa)
heavy: not shown
light: B1 light with Q27R, E50K
Take B8: the Kd is 1.67 nM.

B9: H36/L28 (antibody, human IgG1, kappa)
heavy: not shown
light: B1 light with E50K
For the molecule B9, the Kd is 1.95 nM.

B10: H31/L10 (antibody, human IgG1, kappa)
heavy: not shown
light: B1 light with L109V, K112E
Consider B10, for which the Kd was found to be 3.03 nM.

B11: H41/L0 (antibody, human IgG1, kappa, V domains shown)
VH: QVTLKESGPVLVKPTETLTLTCTVSGFSLSRFGVDWVRQARGQRLEWMGVIWGGGSTNYNSALKSRLTISKDNSKSQVVLTMTNMDPVDTATYYCAGEGSKYGAWFAYWGQGTLVTVSS
VL: DVVMTQSPLSLPVTLGQPASISCRSSQNIVHTNGNTYLEWYQQKPGKAPELLIYKVSNRFSGVPDRFSGSGSGTDFTLKISRVEAEDVGVYYCFQGSHIPFTFGQGTKLEIKR
For B11, the Kd was 2.35 nM.

B12: H46/L31 (antibody, human IgG1, kappa)
heavy: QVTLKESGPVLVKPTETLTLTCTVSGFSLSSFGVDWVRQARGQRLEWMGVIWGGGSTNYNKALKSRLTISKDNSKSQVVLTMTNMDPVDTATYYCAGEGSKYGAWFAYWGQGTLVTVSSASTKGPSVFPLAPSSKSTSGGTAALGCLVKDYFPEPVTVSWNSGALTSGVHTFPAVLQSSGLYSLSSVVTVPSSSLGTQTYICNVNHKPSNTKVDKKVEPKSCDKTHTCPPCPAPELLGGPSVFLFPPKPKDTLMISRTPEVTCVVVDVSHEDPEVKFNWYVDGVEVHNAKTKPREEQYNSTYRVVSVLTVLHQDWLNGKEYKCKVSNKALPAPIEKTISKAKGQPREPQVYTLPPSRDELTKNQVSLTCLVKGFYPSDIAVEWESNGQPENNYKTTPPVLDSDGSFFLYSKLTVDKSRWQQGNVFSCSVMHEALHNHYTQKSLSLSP
light: B1 light with Q27R, E50K
B12: the equilibrium dissociation constant (Kd) was found to be 1.9 nM.

B13: H36/L11 (antibody, human IgG1, kappa)
heavy: not shown
light: B1 light with R24Q, L109V, K112E
On to B13, for which the equilibrium dissociation constant (Kd) turned out to be 2.08 nM.

B14: H36/L35 (antibody, human IgG1, kappa)
heavy: not shown
light: B1 light with Q27R, E50K, Q105R
Regarding B14, the Kd stood at 1.94 nM.

B15: H31/L11 (antibody, human IgG1, kappa)
heavy: not shown
light: B1 light with R24Q, L109V, K112E
On to B15, for which the Kd was determined as 3.05 nM.

B16: H38/L0 (antibody, human IgG1, kappa, V domains shown)
VH: B11 VH with R31S, R41P, Q43K, R44G, S61K
VL: B11 VL
Take B16: the Kd came out at 2.92 nM.

B17: H36/L34 (antibody, human IgG1, kappa)
heavy: not shown
light: B1 light with Q17R, Q27R, E50K
For the molecule B17, the Kd turned out to be 2.01 nM.

B18: H32/L12 (antibody, human IgG1, kappa)
heavy: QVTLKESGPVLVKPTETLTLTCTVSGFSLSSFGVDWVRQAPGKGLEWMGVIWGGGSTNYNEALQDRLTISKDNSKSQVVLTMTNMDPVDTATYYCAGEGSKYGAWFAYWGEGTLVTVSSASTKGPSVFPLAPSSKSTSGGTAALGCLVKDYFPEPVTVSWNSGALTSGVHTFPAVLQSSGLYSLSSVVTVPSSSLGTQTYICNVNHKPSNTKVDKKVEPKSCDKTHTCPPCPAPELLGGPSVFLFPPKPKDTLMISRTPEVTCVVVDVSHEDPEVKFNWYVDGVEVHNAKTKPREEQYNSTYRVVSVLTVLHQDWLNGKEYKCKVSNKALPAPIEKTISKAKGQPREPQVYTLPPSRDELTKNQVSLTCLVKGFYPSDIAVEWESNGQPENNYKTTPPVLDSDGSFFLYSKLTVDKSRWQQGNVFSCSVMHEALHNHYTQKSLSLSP
light: B1 light with R24Q, K47E, L109V, K112E
On to B18, for which the dissociation constant (Kd) was 2.64 nM.

B19: H37/L0 (antibody, human IgG1, kappa, V domains shown)
VH: B11 VH with R31S, R41P, Q43K, R44G, S61R
VL: B11 VL
On to B19, for which the Kd came to 2.92 nM.

B20: H39/L0 (antibody, human IgG1, kappa)
heavy: not shown
light: B1 light
As to B20, the Kd came out at 3.43 nM.

B21: H46/L27 (antibody, human IgG1, kappa)
heavy: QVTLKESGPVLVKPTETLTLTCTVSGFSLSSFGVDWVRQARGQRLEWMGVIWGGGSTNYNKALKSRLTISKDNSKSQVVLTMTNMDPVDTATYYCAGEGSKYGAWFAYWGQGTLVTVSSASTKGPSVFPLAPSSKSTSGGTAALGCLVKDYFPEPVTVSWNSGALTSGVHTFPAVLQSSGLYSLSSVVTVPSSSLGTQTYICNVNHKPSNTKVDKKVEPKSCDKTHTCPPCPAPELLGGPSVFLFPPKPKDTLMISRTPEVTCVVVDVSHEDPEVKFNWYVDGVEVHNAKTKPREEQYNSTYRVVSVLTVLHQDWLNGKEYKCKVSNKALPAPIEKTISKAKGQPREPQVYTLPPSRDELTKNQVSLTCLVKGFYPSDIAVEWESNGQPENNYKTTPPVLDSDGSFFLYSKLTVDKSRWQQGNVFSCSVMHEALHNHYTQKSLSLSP
light: B1 light with Q27R
In the case of B21, the dissociation constant Kd came to 1.9 nM.

B22: H40/L0 (antibody, human IgG1, kappa, V domains shown)
VH: B11 VH with R31K
VL: B11 VL
Consider B22, for which the equilibrium dissociation constant (Kd) worked out at 3.51 nM.

B23: H46/L1 (antibody, human IgG1, kappa)
heavy: not shown
light: B1 light with R24Q
As for B23, the equilibrium dissociation constant (Kd) worked out at 1.84 nM.

B24: H33/L11 (antibody, human IgG1, kappa)
heavy: not shown
light: B1 light with R24Q, L109V, K112E
Regarding B24, the dissociation constant (Kd) was 3.06 nM.

B25: H35/L0 (antibody, human IgG1, kappa, V domains shown)
VH: B11 VH with R41P, Q43K, R44G
VL: B11 VL
Take B25: the Kd was determined as 3.65 nM.

B26: H46/L11 (antibody, human IgG1, kappa)
heavy: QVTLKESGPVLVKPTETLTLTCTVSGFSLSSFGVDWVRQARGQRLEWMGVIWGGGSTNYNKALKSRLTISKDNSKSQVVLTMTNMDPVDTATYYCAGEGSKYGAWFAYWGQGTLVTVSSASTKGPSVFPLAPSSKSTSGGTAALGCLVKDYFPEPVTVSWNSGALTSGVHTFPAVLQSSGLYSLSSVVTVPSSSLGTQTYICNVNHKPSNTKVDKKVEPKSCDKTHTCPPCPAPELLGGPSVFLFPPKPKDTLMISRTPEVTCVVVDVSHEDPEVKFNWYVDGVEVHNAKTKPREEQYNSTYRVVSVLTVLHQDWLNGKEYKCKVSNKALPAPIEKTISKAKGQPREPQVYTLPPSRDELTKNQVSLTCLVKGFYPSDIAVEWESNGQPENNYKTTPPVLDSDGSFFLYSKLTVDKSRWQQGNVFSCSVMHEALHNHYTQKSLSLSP
light: B1 light with R24Q, L109V, K112E
Consider B26, for which the equilibrium dissociation constant (Kd) was 1.8 nM.

B27: H36/L37 (antibody, human IgG1, kappa)
heavy: not shown
light: B1 light with Q17R, Q27R, E50K, Q105R
As for B27, the equilibrium dissociation constant (Kd) came out at 2.2 nM.

B28: H32/L0 (antibody, human IgG1, kappa)
heavy: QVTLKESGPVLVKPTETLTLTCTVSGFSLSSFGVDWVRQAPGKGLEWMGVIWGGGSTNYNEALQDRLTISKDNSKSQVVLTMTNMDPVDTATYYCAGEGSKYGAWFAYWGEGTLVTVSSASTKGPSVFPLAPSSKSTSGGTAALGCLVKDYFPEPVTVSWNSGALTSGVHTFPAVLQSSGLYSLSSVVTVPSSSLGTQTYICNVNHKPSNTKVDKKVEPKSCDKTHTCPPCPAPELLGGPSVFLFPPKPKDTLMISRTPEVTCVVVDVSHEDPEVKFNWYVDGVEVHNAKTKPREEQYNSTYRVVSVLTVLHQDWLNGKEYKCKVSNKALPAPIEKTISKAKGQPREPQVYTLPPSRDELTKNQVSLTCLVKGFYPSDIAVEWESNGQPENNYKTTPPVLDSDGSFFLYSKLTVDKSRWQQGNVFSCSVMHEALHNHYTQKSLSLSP
light: B1 light
Regarding B28, the equilibrium dissociation constant (Kd) amounted to 2.82 nM.

B29: H34/L0 (antibody, human IgG1, kappa, V domains shown)
VH: B11 VH with R31K, R41P, Q43K, R44G
VL: B11 VL
As for B29, the dissociation constant Kd came out at 5.94 nM.

B30: H32/L13 (antibody, human IgG1, kappa)
heavy: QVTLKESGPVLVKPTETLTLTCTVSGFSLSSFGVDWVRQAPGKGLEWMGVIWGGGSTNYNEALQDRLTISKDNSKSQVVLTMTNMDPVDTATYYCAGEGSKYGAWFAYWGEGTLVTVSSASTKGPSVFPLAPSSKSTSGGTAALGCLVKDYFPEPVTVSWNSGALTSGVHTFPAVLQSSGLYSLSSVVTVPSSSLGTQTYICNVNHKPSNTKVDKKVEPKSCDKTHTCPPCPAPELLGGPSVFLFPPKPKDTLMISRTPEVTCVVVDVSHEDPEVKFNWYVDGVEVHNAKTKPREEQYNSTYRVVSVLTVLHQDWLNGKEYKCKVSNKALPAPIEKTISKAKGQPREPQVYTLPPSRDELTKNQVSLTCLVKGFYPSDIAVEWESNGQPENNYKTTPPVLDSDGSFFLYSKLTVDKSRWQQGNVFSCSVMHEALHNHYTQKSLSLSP
light: B1 light with R24Q, K47Q, L109V, K112E
Take B30: the Kd is 2.74 nM.

B31: H33/L0 (antibody, human IgG1, kappa)
heavy: not shown
light: B1 light
Turning to B31, the equilibrium dissociation constant (Kd) was found to be 3.04 nM.

B32: H36/L27 (antibody, human IgG1, kappa)
heavy: not shown
light: B1 light with Q27R
On to B32, for which the Kd was found to be 1.94 nM.

B33: H33/L12 (antibody, human IgG1, kappa)
heavy: not shown
light: B1 light with R24Q, K47E, L109V, K112E
B33: the Kd is 3.06 nM.

B34: H46/L28 (antibody, human IgG1, kappa)
heavy: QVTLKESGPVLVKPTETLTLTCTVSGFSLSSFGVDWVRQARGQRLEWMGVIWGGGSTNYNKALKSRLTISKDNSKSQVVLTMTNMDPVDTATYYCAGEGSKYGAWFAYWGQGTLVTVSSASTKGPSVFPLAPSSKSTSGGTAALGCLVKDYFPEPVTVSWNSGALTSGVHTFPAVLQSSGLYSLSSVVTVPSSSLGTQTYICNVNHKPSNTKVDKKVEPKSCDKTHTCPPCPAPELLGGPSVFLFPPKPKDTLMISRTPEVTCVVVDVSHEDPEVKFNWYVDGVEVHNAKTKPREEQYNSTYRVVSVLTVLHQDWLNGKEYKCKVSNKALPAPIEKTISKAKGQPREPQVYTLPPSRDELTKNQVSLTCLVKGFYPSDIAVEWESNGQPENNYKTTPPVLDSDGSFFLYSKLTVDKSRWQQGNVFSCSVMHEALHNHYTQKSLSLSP
light: B1 light with E50K
Take B34: the Kd amounted to 1.86 nM.

B35: H33/L13 (antibody, human IgG1, kappa, V domains shown)
VH: B11 VH with R31S, R41P, R44G, S61E, K64Q, S65D, Q111E
VL: B11 VL with R24Q, K47Q, L109V, K112E
B35: the Kd was 3.02 nM.

B36: H32/L11 (antibody, human IgG1, kappa)
heavy: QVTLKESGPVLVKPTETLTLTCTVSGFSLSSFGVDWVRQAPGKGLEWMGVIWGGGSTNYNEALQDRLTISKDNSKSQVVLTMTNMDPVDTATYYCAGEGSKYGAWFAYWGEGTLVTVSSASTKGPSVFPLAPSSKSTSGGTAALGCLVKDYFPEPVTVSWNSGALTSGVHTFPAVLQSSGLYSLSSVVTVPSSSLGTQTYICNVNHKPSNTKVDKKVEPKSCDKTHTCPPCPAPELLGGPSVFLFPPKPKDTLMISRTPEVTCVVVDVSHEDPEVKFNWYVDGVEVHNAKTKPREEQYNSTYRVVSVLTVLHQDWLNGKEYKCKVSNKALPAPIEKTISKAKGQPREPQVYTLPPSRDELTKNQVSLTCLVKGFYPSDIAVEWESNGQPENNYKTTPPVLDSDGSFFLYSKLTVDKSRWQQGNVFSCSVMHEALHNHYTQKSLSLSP
light: B1 light with R24Q, L109V, K112E
Turning to B36, the Kd is 2.74 nM.

B37: H36/L10 (antibody, human IgG1, kappa)
heavy: not shown
light: B1 light with L109V, K112E
With B37, the dissociation constant (Kd) came to 1.87 nM.

(Values after patent US20120121587A1 (Chugai, published 2012).)
